Patent publication US20230287125A1 (LEPU BIOPHARMA, published 2023)

Experiments:
[1] = biological target: T1, human PD-L1-his tag protein (human, UniProt Q9NZQ7 19-238); assay: SPR (Biacore), affinity ranking, PDL1-His
T1 construct: also called human PD-L1-His protein; recombinant PD-L1 protein; not shown: his tag

human PD-L1-Fc protein [2] = biological target: T2, human PD-L1-Fc protein (human, UniProt Q9NZQ7 19-238); assay: receptor blocking ELISA: coated human PD-L1-Fc, blocked ligand biotin-labeled human CD80-Fc (Bio-CD80), OD 450nm; middle left panel
T2 construct: coating antigen of the ELISAs; also called rhPD-L1-Fc; not shown: Fc
Protocol: (§1) Briefly, microtiter plates were coated with human PD-L1-Fc protein at 0.5 μg/ml in PBS, 100 μl/well at 4° C. overnight, then blocked with 150 μl/well of 1% BSA at 37° C. for 2 hours. […] The plates were washed with PBS/Tween and then incubated with Streptavidin-HRP for 10 mins at 37° C. After washing, the plates were developed with TMB substrate and analyzed by spectrophotometer at OD 450 nm.

[3] = biological target: T1, human PD-L1-his tag protein; assay: SPR (Biacore T200), mAb captured on Protein A chip, PD-L1-his injected
Protocol: The binding of the humanized antibodies to recombinant PD-L1 protein (human PD-L1-his tag) was tested by Biacore using a capture method. […] A serial dilution of human PD-L1-his tag protein was injected over captured antibody for 2 mins at a flow rate of 30 μl/min. The antigen was allowed to dissociate for 1500 s. All the experiment were carried out on a Biacore T200.

human PD-L1-Fc protein [4] = biological target: T2, human PD-L1-Fc protein; assay: ELISA, antibody titrated on coated human PD-L1-Fc, OD 450nm; upper left panel
Protocol: (§2) To evaluate antigen binding activity, the humanized antibodies were subjected to ELISA test. Briefly, microtiter plates were coated with human PD-L1-Fc protein at 0.5 μg/ml in PBS, 100 μl/well at 4° C. overnight, then blocked with 200 μl/well of 1% BSA. Three-fold dilutions of humanized antibodies starting from 10 μg/ml were added to each well and incubated for 1 hour at 37° C. The plates were washed with PBS/Tween and then incubated with mouse-anti-human IgG Fab antibody conjugated with Horse Radish Peroxidase (HRP) for 1 hour at 37° C. After washing, the plates were developed with TMB substrate and analyzed by spectrophotometer at OD 450 nm.

human PD-L1-Fc protein [5] = biological target: T2, human PD-L1-Fc protein; assay: receptor blocking ELISA: coated human PD-L1-Fc, blocked ligand biotin-labeled human PD-1-Fc (Bio-PD1), OD 450nm; middle left panel
Protocol: as §1

[6] = biological target: T3, human PD-L1 over-expressed on CHOK1 cells (human, UniProt Q9NZQ7 19-290); assay: flow cytometry (MFI) on PDL1-CHOK1 cells; upper right panel
T3 construct: whole, on cells; also called PDL1-CHOK1 cells
Protocol: (§3) To evaluate the antigen binding property, the humanized antibodies were analyzed for their binding to PD-L1 overexpressed on mammalian cells by FACS. Briefly, PDL1-CHOK1 cells were firstly incubated with 3-fold serious diluted humanized antibodies starting at 15 μg/ml at 4° C. for 40 mins. After washed by PBS, the Alexa Fluor® 647 AffiniPure Goat Anti-Human IgG (H+L) antibody was added to each well and incubated at 4° C. for 30 mins. The MFI of Alexa Fluor® 647 was evaluated by FACSCanto.

human PD-L1-Fc protein [7] = biological target: T2, human PD-L1-Fc protein; assay: ELISA, antibody titrated on coated human PD-L1-Fc, OD 450nm; lower left panel (with Hu47C6A3-3)
Protocol: as §2

human PD-L1-Fc protein [8] = biological target: T2, human PD-L1-Fc protein; assay: competition ELISA, coated human PD-L1-Fc, biotin-labeled human PD-1-Fc as competitor
Protocol: as §1, with “BSA.” for “BSA at 37° C. for 2 hours.”

[9] = biological target: T3, human PD-L1 over-expressed on CHOK1 …; assay: flow cytometry (MFI) on PDL1-CHOK1 cells; upper left panel (with Hu47C6A3-1 to -3)
Protocol: as §3

[10] = biological target: T3, human PD-L1 over-expressed on CHOK1 …; assay: flow cytometry on PDL1-CHOK1 cells
Protocol: After washing by PBS, Alexa Fluor® 647 AffiniPure Goat Anti-Human IgG (H+L) was added to each well and incubated at 4° C. for 30 mins. Samples were washed twice with FACS buffer. The mean florescence intensity (MFI) of Alexa Fluor® 647 was evaluated by FACSCanto.

human PD-L1-Fc protein [11] = biological target: T2, human PD-L1-Fc protein; assay: receptor blocking ELISA: coated human PD-L1-Fc, blocked ligand biotin-labeled human CD80-Fc (Bio-CD80), OD 450nm; lower left panel (with Hu47C6A3-3)
Protocol: as §1

human PD-L1-Fc protein [12] = biological target: T2, human PD-L1-Fc protein; assay: receptor blocking ELISA: coated human PD-L1-Fc, blocked ligand biotin-labeled human PD-1-Fc (Bio-PD1), OD 450nm; upper right panel (with Hu47C6A3-2)
Protocol: as §1

human PD-L1-Fc protein [13] = biological target: T2, human PD-L1-Fc protein; assay: ELISA, antibody titrated on coated human PD-L1-Fc, OD 450nm; upper left panel (with Hu47C6A3-1)
Protocol: as §2

human PD-L1-Fc protein [14] = biological target: T2, human PD-L1-Fc protein; assay: receptor blocking ELISA: coated human PD-L1-Fc, blocked ligand biotin-labeled human PD-1-Fc (Bio-PD1), OD 450nm; lower left panel (with Hu47C6A3-3)
Protocol: as §1

mouse PD-L1 protein = mouse PD-L1 protein (mouse, UniProt Q9EP73 19-239); assay: ELISA, coated mouse PD-L1
Protocol: (§4) ELISA testing was carried out to evaluate the binding of chimeric antibodies to human, mouse, rat, and cynomolgus PD-L1, respectively.
(§5) Briefly, microtiter plates were coated with human, mouse, rat and cynomolgus PD-L1 proteins at 0.5 μg/ml in PBS, 100 μl/well at 4° C. overnight, then blocked with 150 μl/well of 1% BSA. Three-fold dilutions of chimeric antibodies starting from 10 μg/ml were added to each well and incubated for 1 hour at 37° C. The plates were washed with PBS/Tween and then incubate with mouse-anti-human IgG Fab antibody conjugated with Horse Radish Peroxidase (HRP) for 30 mins at 37° C. After washing, the plates were developed with TMB substrate and analyzed by spectrophotometer at OD 450 nm.

human PD-L1-Fc protein [15] = biological target: T2, human PD-L1-Fc protein; assay: receptor blocking ELISA: coated human PD-L1-Fc, blocked ligand biotin-labeled human CD80-Fc (Bio-CD80), OD 450nm; upper left panel (with Hu47C6A3-1)
Protocol: as §1

rat PD-L1 protein = rat PD-L1 protein (rat, UniProt D4AE25 19-239); assay: ELISA, coated rat PD-L1
Protocol: as §4, §5

[16] = biological target: T1, human PD-L1-his tag protein; assay: SPR (Biacore T200), mAb captured on Protein A chip, PD-L1-his injected; remark: listed apart in the source
Protocol: A serial dilution of human PD-L1-his tag protein was injected over captured antibody for 2 mins at a flow rate of 30 μl/min. The antigen was allowed to dissociate for 480-1500 s. All the experiment were carried out on a Biacore T200. Data analysis was carried out using Biacore T200 evaluation software.

human PD-L1-Fc protein [17] = biological target: T2, human PD-L1-Fc protein; assay: ELISA, antibody titrated on coated human PD-L1-Fc, OD 450nm; upper right panel (with Hu47C6A3-2)
Protocol: as §2

cynomolgus PD-L1 protein = cynomolgus PD-L1 protein (cynomolgus, UniProt G7PSE7 19-238); assay: ELISA, coated cynomolgus PD-L1
Protocol: as §4, §5

human PD-L1-Fc protein [18] = biological target: T2, human PD-L1-Fc protein; assay: ELISA, coated human PD-L1 (PD-L1-Fc per paragraph 110)
Protocol: as §1, with “1% BSA.” for “1% BSA at 37° C. for 2 hours.”, “with Mouse-anti-human IgG Fab antibody conjugated with Horse Radish Peroxidase (HRP)” for “with Streptavidin-HRP”, “for 30” for “for 10”
as §5

human PD-L1-Fc protein [19] = biological target: T2, human PD-L1-Fc protein; assay: receptor blocking ELISA: coated human PD-L1-Fc, blocked ligand biotin-labeled human CD80-Fc (Bio-CD80), OD 450nm; upper right panel (with Hu47C6A3-2)
Protocol: as §1

T3 sequence (Q9NZQ7 19-290): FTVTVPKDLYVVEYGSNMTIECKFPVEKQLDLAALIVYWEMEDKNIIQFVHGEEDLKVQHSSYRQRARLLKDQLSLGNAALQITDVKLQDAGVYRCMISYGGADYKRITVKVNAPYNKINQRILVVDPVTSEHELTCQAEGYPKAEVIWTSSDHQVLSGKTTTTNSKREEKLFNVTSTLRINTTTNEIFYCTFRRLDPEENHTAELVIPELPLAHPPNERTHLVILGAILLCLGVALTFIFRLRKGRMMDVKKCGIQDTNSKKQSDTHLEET
T1 sequence (Q9NZQ7 19-238 limits assumed): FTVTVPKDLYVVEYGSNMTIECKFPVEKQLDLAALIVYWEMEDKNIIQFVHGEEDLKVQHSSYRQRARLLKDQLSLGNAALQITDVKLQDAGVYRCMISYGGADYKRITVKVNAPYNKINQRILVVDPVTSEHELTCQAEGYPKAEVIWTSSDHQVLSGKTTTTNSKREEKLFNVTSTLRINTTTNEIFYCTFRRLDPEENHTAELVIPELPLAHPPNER
T2 sequence (Q9NZQ7 19-238 limits assumed): as above
rat PD-L1 protein, sequence (D4AE25 entry or part of it limits assumed): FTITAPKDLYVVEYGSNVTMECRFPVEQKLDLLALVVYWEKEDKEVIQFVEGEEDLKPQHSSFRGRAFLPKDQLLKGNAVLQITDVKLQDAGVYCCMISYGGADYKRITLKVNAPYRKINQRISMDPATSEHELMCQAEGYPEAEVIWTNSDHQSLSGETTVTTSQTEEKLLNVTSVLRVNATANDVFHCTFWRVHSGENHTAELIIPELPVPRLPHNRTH
cynomolgus PD-L1 protein, sequence (G7PSE7 entry or part of it): as the sequence (Q9NZQ7 19-238 limits assumed) above, with A33T, A34S, S62N, R68Q, Q82R, F173L, T185A, T192I, H215L counted along it
mouse PD-L1 protein, sequence (Q9EP73 19-239 limits assumed): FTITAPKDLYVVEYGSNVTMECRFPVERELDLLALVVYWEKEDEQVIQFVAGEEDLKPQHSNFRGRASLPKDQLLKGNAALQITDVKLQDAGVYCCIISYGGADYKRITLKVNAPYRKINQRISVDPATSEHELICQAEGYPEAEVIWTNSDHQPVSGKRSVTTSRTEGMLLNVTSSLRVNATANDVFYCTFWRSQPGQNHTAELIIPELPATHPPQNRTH

B1: Hu67F3G7-5 (antibody, V domains shown)
VH: EVQLVQSGAEVKKPGASVKVSCKASGYIFTDFWVSWVRQAPGKGLEWIGEIYPNSGVSRYNEKFKGRVTMTVDKSISTAYMELSRLRSDDTAVYYCTKYFGYTYWFGYWGQGTLVTVSS
VL: DIQMTQSPSSLSASVGDRVTITCRASKSVSTYMHWYQQKPGKAPKLLIYSASHLESGVPSRFSGSGSGTDFTLTISSLQPEDFATYYCQQSNELPVTFGGGTKVEIK
notes: humanized
Kd [1]: 0.037 nM
koff [1]: 9.71e-05 s⁻¹
kon [1]: 2.62e+06 M⁻¹ s⁻¹
IC50 (human PD-L1-Fc protein [2]): 0.344 µg/mL
Kd [3]: 0.0431 nM
koff [3]: 7.92e-05 s⁻¹
kon [3]: 1.84e+06 M⁻¹ s⁻¹
EC50 (human PD-L1-Fc protein [4]): 0.0133 µg/mL
IC50 (human PD-L1-Fc protein [5]): 0.127 µg/mL
EC50 [6]: 0.115 nM

B2: 47C6A3 chimeric mAb (antibody, V domains shown)
VH: DVQLQESGPGLVKPSQSLSLTCTVTGYSITSDYAWNWIRQFPGNKLEWMGYIIYSGSTSYNPSLKSRISITRDTSKNQFFLQLNSVTTEDTATYYCARSTMIATNWFAYWGQGTLVTVSA
VL: DIVMTQSHKFMSTSVVDRVSITCKASQDVSLAVAWYQQKPGQSPKLLIYWASTRHTGVPDRFTGSGSGTDFALTISSVQAEDLALYYCQQHYITPWTFGGGTKLEIK
notes: chimeric mAb of the hybridoma clone; also called 47C6A3-chimera
EC50 (human PD-L1-Fc protein [7]): 0.0176 µg/mL
IC50 (human PD-L1-Fc protein [8]): 0.0912 µg/mL
EC50 [9]: 0.113 nM
EC50 [10]: 0.148 nM
IC50 (human PD-L1-Fc protein [11]): 0.439 µg/mL
IC50 (human PD-L1-Fc protein [12]): 0.0857 µg/mL
EC50 (human PD-L1-Fc protein [13]): 0.0115 µg/mL
IC50 (human PD-L1-Fc protein [14]): 0.099 µg/mL
binding result (mouse PD-L1 protein): no binding (tested: dilutions starting from 10 µg/ml)
IC50 (human PD-L1-Fc protein [15]): 0.436 µg/mL
binding result (rat PD-L1 protein): no binding (tested: dilutions starting from 10 µg/ml)
Kd [16]: 0.366 nM
koff [16]: 0.000678 s⁻¹
kon [16]: 1.85e+06 M⁻¹ s⁻¹
EC50 (human PD-L1-Fc protein [17]): 0.0124 µg/mL
EC50 (cynomolgus PD-L1 protein): 0.00634 µg/mL
EC50 (human PD-L1-Fc protein [18]): 0.0102 µg/mL
IC50 (human PD-L1-Fc protein [19]): 0.395 µg/mL
